The supplement of paper PMC7877785
± gives the uncertainty stated by the source.

Test: self-splicing fitness, log relative to wild type (ln ratio); higher = more splicing; Tetrahymena group I intron in knt gene, E. coli kanamycin selection, DiMSum; sequences stand for … in CUCUCU…GGAGGGAAAAGUUAUCAGGCAUGCACCUGGUAGCUAGUCUUUAAACCAAUAGAUUGCAUCGGUUUAAAAGGCAAGACCGUCAAAUUGCGGGAAAGGGGUCAACAGCCGUUCAGUACCAAGUCUCAGGGGAAACUUUGAGAUGGCCUUGCAAAGGGUAUGGUAAUAAGCUGACGGACAUGGUCCUAACCACGCAGCCAAGUCCUAAGUCAACAGAUCUUCUGUUGAUAUGGAUGCAGUUCACAGACUAAAUGUCGGUCGGGGAAGAUGUAUUCUUCUCAUAAGAUAUAGUCGGACCUCUCCUUAAUGGGAGCUAGCGGAUGAAGUGAUGCAACACUGGAGCCGCUGGGAACUAAUUUGUAUGCGAAAGUAUAUUGAUUAGUUUUGGAGUACUCGUGGUCG
In short: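 Colonies from six replicate transformations of E. coli BL21(DE3) were pooled and amplicon-sequenced on an Illumina HiSeq 2500. The library placed an intron with all eight P1ex-region nucleotides randomised inside the knt kanamycin-resistance gene on pET-22b(+), and cells grew overnight at 37°C or 30°C on LB agar with or without 25 μg/mL kanamycin (plus 100 μg/mL carbenicillin, 50 μM IPTG, 0.2% rhamnose). Fitness is the DiMSum error-weighted combination of wild-type-normalised replicate fold changes, kanamycin versus none.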

| Sequence | self-splicing fitness (ln) (30 °C) | self-splicing fitness (ln) (37 °C) |
| --- | --- | --- |
| AGUUAGCAAUAUUACGAGUA | -2.73 ± 0.17 | -1.64 ± 0.13 |
| AGUUAGCAAUAUUACGCCGG | -2.98 ± 0.34 | -2.26 ± 0.39 |
| AGUUAGCAAUAUUACGCGUC | -3.11 ± 0.48 | -0.621 ± 0.33 |
| AGUUAGCAAUAUUACGCGUU | -1.32 ± 0.12 | -0.816 ± 0.15 |
| AGUUAGCAAUAUUACGGAGA | -1.99 ± 0.27 | -2.86 ± 0.48 |
| AGUUAGCAAUAUUACGGCUC | -3.53 ± 0.26 | -2.46 ± 0.34 |
| AGUUAGCAAUAUUACGGGGU | -3.76 ± 0.46 | -2.61 ± 0.33 |
| AGUUAGCAAUAUUACGGUAG | -3.77 ± 0.3 | -2.11 ± 0.34 |
| AGUUAGCAAUAUUACGGUGA | -1.43 ± 0.13 | -1.13 ± 0.21 |
| AGUUAGCAAUAUUACGGUUA | -1.54 ± 0.12 | -0.607 ± 0.087 |
| AGUUAGCAAUAUUACGUAAG | -2.42 ± 0.21 | -0.816 ± 0.27 |
| AGUUAGCAAUAUUACGUAGU | -2.77 ± 0.17 | -1.94 ± 0.17 |
| AGUUAGCAAUAUUACGUAUU | -2.02 ± 0.1 | -1.04 ± 0.11 |
| AGUUAGCAAUAUUACGUCCA | -0.989 ± 0.16 | -0.0648 ± 0.18 |
| AGUUAGCAAUAUUACGUCCC | -0.148 ± 0.21 | -0.452 ± 0.2 |
| AGUUAGCAAUAUUACGUCCU | 0.147 ± 0.09 | 0.0687 ± 0.091 |
| AGUUAGCAAUAUUACGUGAC | -2.66 ± 0.24 | -2.9 ± 0.33 |
| AGUUAGCAAUAUUACGUGAU | -3.08 ± 0.21 | -1.19 ± 0.18 |
| AGUUAGCAAUAUUACGUGCA | -1.6 ± 0.14 | -0.22 ± 0.15 |
| AGUUAGCAAUAUUACGUGUG | -3.18 ± 0.15 | -1.8 ± 0.13 |
| AGUUAGCAAUAUUACGUGUU | -3.25 ± 0.15 | -1.52 ± 0.14 |
| AUAAAGCAAUAUUACGACAC | -0.305 ± 0.11 | -0.252 ± 0.13 |
| AUAAAGCAAUAUUACGAGAC | -2.89 ± 0.17 | -1.63 ± 0.19 |
| AUAAAGCAAUAUUACGAGAU | -2.31 ± 0.11 | -1.22 ± 0.12 |

| Sequence | self-splicing fitness (ln) (30 °C) | self-splicing fitness (ln) (37 °C) |
| --- | --- | --- |
| AUAAAGCAAUAUUACGAGCA | -0.252 ± 0.074 | -0.299 ± 0.082 |
| AUAAAGCAAUAUUACGAUAU | -0.0773 ± 0.088 | 0.168 ± 0.1 |
| AUAAAGCAAUAUUACGAUUG | -2.38 ± 0.14 | -1.14 ± 0.16 |
| AUAAAGCAAUAUUACGCAAA | -1.01 ± 0.1 | -1.03 ± 0.14 |
| AUAAAGCAAUAUUACGCAGU | -1.89 ± 0.11 | -0.968 ± 0.096 |
| AUAAAGCAAUAUUACGCAUC | -3.37 ± 0.26 | -1.74 ± 0.3 |
| AUAAAGCAAUAUUACGCCCA | 0.167 ± 0.18 | -0.307 ± 0.23 |
| AUAAAGCAAUAUUACGGAUA | -1.7 ± 0.11 | -0.75 ± 0.11 |
| AUAAAGCAAUAUUACGGCGU | 0.632 ± 0.068 | 0.894 ± 0.1 |
| AUAAAGCAAUAUUACGGGUC | -3.45 ± 0.19 | -1.25 ± 0.15 |
| AUAAAGCAAUAUUACGGUGU | -1.25 ± 0.068 | -0.672 ± 0.082 |
| AUAAAGCAAUAUUACGUACC | 0.0438 ± 0.19 | -0.16 ± 0.4 |
| AUAAAGCAAUAUUACGUCAU | -0.954 ± 0.056 | -0.228 ± 0.083 |
| AUAAAGCAAUAUUACGUGGU | -2.45 ± 0.094 | -1.64 ± 0.1 |
| AUAAAGCAAUAUUACGUGUU | -2.97 ± 0.071 | -1.11 ± 0.068 |
| AUAAAGCAAUAUUACGUUGU | -2.65 ± 0.11 | -1.9 ± 0.11 |
| AUACAGCAAUAUUACGACUU | -0.367 ± 0.065 | 0.271 ± 0.081 |
| AUACAGCAAUAUUACGAGAC | -4.95 ± 0.41 | -1.82 ± 0.18 |
| AUACAGCAAUAUUACGAUAU | -1.45 ± 0.092 | -0.42 ± 0.1 |
| AUACAGCAAUAUUACGAUCC | -0.368 ± 0.12 | -1.59 ± 0.15 |
| AUACAGCAAUAUUACGCAAC | -2.13 ± 0.16 | -1.49 ± 0.15 |
| AUACAGCAAUAUUACGCCCA | -0.142 ± 0.1 | -0.545 ± 0.14 |
| AUACAGCAAUAUUACGCGUU | -3.01 ± 0.14 | -0.461 ± 0.099 |
| AUACAGCAAUAUUACGCUAC | -2.36 ± 0.35 | – |

| Sequence | self-splicing fitness (ln) (30 °C) | self-splicing fitness (ln) (37 °C) |
| --- | --- | --- |
| AUACAGCAAUAUUACGCUGG | -2.29 ± 0.13 | -2.76 ± 0.25 |
| AUACAGCAAUAUUACGGACC | -0.965 ± 0.21 | -1.07 ± 0.26 |
| AUACAGCAAUAUUACGGAUC | -3.54 ± 0.23 | -2.53 ± 0.23 |
| AUACAGCAAUAUUACGGGGG | -3.43 ± 0.25 | -2.84 ± 0.25 |
| AUACAGCAAUAUUACGGGGU | -3.29 ± 0.13 | -1.69 ± 0.093 |
| AUACAGCAAUAUUACGGUGC | -3.65 ± 0.19 | -1.74 ± 0.16 |
| AUACAGCAAUAUUACGUAAC | -3.13 ± 0.11 | -1.25 ± 0.077 |
| AUACAGCAAUAUUACGUGAU | -2.14 ± 0.084 | -0.569 ± 0.089 |
| AUACAGCAAUAUUACGUGUC | -4.39 ± 0.14 | -2.67 ± 0.13 |
| AUACAGCAAUAUUACGUUGC | -4.31 ± 0.28 | -2.21 ± 0.35 |
| AUACAGCAAUAUUACGUUGG | -3.51 ± 0.14 | -2.87 ± 0.16 |
| AUAGAGCAAUAUUACGAAAA | -1.06 ± 0.3 | -1.85 ± 0.35 |
| AUAGAGCAAUAUUACGAGAU | -0.944 ± 0.27 | -1.72 ± 0.4 |
| AUAGAGCAAUAUUACGAGCG | -2.43 ± 0.21 | -1.07 ± 0.22 |
| AUAGAGCAAUAUUACGCCGG | -2.52 ± 0.31 | -1.94 ± 0.47 |
| AUAGAGCAAUAUUACGCUGC | -2.86 ± 0.29 | -1.05 ± 0.2 |
| AUAGAGCAAUAUUACGCUUA | -0.78 ± 0.084 | 0.522 ± 0.16 |
| AUAGAGCAAUAUUACGCUUU | -1.68 ± 0.13 | -1.58 ± 0.15 |
| AUAGAGCAAUAUUACGGAAU | -1.26 ± 0.15 | -1.24 ± 0.18 |
| AUAGAGCAAUAUUACGGCAU | 0.19 ± 0.084 | 0.738 ± 0.12 |
| AUAGAGCAAUAUUACGGCCG | -0.599 ± 0.24 | -1.36 ± 0.45 |
| AUAGAGCAAUAUUACGGGCG | -3 ± 0.22 | -2.13 ± 0.31 |
| AUAGAGCAAUAUUACGGUUG | -3.21 ± 0.23 | -1.92 ± 0.22 |
| AUAGAGCAAUAUUACGGUUU | -0.828 ± 0.071 | -0.331 ± 0.098 |

| Sequence | self-splicing fitness (ln) (30 °C) | self-splicing fitness (ln) (37 °C) |
| --- | --- | --- |
| AUAGAGCAAUAUUACGUAAA | – | -1.57 ± 0.24 |
| AUAGAGCAAUAUUACGUCAU | -0.913 ± 0.087 | 0.145 ± 0.1 |
| AUAGAGCAAUAUUACGUCGU | -0.0699 ± 0.096 | -0.158 ± 0.1 |
| AUAGAGCAAUAUUACGUCUG | -0.796 ± 0.098 | -0.654 ± 0.14 |
| AUAGAGCAAUAUUACGUGUA | -3.02 ± 0.18 | -1.17 ± 0.16 |
| AUAGAGCAAUAUUACGUUGU | -1.96 ± 0.066 | -1.52 ± 0.07 |
| AUAUAGCAAUAUUACGAAAG | -3.28 ± 0.25 | -2.08 ± 0.38 |
| AUAUAGCAAUAUUACGCAAC | -3.95 ± 0.32 | -1.96 ± 0.27 |
| AUAUAGCAAUAUUACGCACA | -0.73 ± 0.19 | -0.28 ± 0.23 |
| AUAUAGCAAUAUUACGCGUU | -1.67 ± 0.2 | -1.61 ± 0.24 |
| AUAUAGCAAUAUUACGCUAC | -2.34 ± 0.33 | – |
| AUAUAGCAAUAUUACGGAUU | -1.46 ± 0.14 | -1.26 ± 0.22 |
| AUAUAGCAAUAUUACGGCUU | 0.0949 ± 0.099 | 0.269 ± 0.12 |
| AUAUAGCAAUAUUACGGUUA | -1.12 ± 0.13 | -0.372 ± 0.12 |
| AUAUAGCAAUAUUACGUAAU | -1.02 ± 0.073 | -0.751 ± 0.12 |
| AUAUAGCAAUAUUACGUACU | -0.531 ± 0.16 | -0.188 ± 0.19 |
| AUAUAGCAAUAUUACGUAGU | -2.39 ± 0.14 | -0.774 ± 0.14 |
| AUAUAGCAAUAUUACGUAUA | -2.12 ± 0.23 | -0.454 ± 0.17 |
| AUAUAGCAAUAUUACGUAUC | -3.41 ± 0.3 | -1.92 ± 0.35 |
| AUAUAGCAAUAUUACGUCUA | -0.735 ± 0.12 | -0.495 ± 0.12 |
| AUAUAGCAAUAUUACGUCUC | -3.22 ± 0.36 | -1.51 ± 0.28 |
| AUAUAGCAAUAUUACGUGUA | -2.27 ± 0.36 | -2.01 ± 0.25 |
| AUAUAGCAAUAUUACGUUAC | -3.05 ± 0.29 | -2.33 ± 0.24 |
| AUCAAGCAAUAUUACGAAGG | -3.36 ± 0.19 | -2.96 ± 0.26 |
